Laboratory results as given in patent publication US20240270826A1 (NATIONAL RESEARCH COUNCIL OF CANADA, published 2024).

B1: NRCoV2-SR02 VHH (VHH)
VHH: EVQLVDSGGGLVQAGGSLRLSCTASEFTLNYYSIGWFRQSPGKEREGVSCIRYSGGGIDYADSVKGRFTISRDNAKNTVYLTMNSLKPEDTAVYYCAADRLYSRACPTAGGRNYWGQGTQVTVSS
B2: NRCoV2-20 VHH (VHH)
VHH: EVQLQQSGGGLVQPGGSLRLSCAASGRTFSNYVVGWFRQAPQAPGKDHEFVAVISGSDTETYYADSVKGRFTISRDNAKNTVYLQMNSLKPEDTAVYYCAADRGMSYYYTRATEYYYWGQGTQVTVSS
B3: NRCoV2-17 VHH (VHH)
VHH: EVQLQQSGGGLVQTGGSLRLSCAAAGSPFSQLAMSWYRQISGKERAWVASISPTGNRSYSKIAKGRFTISRDNAKNTVTLQMTSLKPEDTAAYICQAANVNGGDYWGQGTQVTVSS
B4: NRCoV2-15 VHH (VHH)
VHH: EVQLVSSGGGLVEAGGSLRLSCIASGSTSGRNTMGWFRQAPGKQREWVAIVSTSGATNYAGSVKGRFTLSRDNAKNAVYLQMNNLKPEDTAVYYCYAAYGGGGDYWGQGTQVTVSS
B5: NRCoV2-SR13 VHH (VHH)
VHH: EVQLVESGGGLVTTGGSLRLSCATSGSRFGSKHMAWYRQAPGKQRDLVAAISSGGSTHYGSSVKGRFTISRDNAKSTVYLQMNSLNPEDTAVFYCNMGGWDYRSNTYIPGSRSDYWGQGTQVTVSS
B6: NRCoV2-11 VHH (VHH)
VHH: EVQLVSSGGGLVQPGGSLRLSCAASGSSLDSYSVSWFRQAPGKEREWISFISRYYSSTYYTDSVKGRFTTSRDGDQKTVHLQMNSLKPEDTAVYYCAARSRDFSSPFSATDTYTSWGQGTQVTVSS
B7: NRCoV2-S2G3 VHH (VHH)
VHH: QVQLVQSGGGSVQAGGSLRLSCAASGSTFGIFLMGWRRQAPGKQRELVAHITSGGATNYADSVKGRFTISRDNAKNTVYLQMNSLEPEDTAVYYCYTTKRDDASVYWGQGTQVTVSS
B8: NRCoV2-14 VHH (VHH)
VHH: EVQLVSSGGGLVQAGGSLRLSCEASGTTFSHYAVGWYRQAPGKQREWVASISVFGSTTYGGSVAGRFTISRDNDKNTVDLQMNSLKPEDTAVYYCHAVNADIGGDYWGQGTQVTVSS
B9: NRCoV2-SR04 VHH (VHH)
VHH: QVQLVESGGGLVQAGGSLRLSCAASGRTFSSHTVGWYRQAPGKQRDLVAAISMGGNTNYADYADSVKGRFTISRDNAKNTLYLQMNSLKPEDTAVYYCNTAALVGNRLLPMATITWGQGTQVTVSS
B10: NRCoV2-SR01 VHH (VHH)
VHH: EVQLVQSGGGSVQAGGSLRLSCVASGFTFDNYAIGWFRQAPGKEREGVSCISGNGGVTIYADSVKGRFTISRDNAKNLVYLQMNSLKPEDTAVYYCAATGIRSTWSVYGCSRLAGPYDYWGQGTQVTVSS
B11: NRCoV2-SR16 VHH (VHH)
VHH: QVQLVQSAGGLVQAGGSLRLSCVVSGTTFSRYHMGWHRQAPGKQRDFVAGISTSGAVTYADSAKGRFTISRDNAKNTVYLEMNSLKLEDTALYYCNTGGWDYRSSTFIMGLNWGQGTQVTVSS
B12: NRCoV2-S2G4 VHH (VHH)
VHH: QVQLVQSGGGLVQAGGSLTLSCAPSGSTFSGYATNWYRQAPGKQRELVATISSDGDKNYADSVKGRFTISRDNAKNTVYLQMNSLKPEDTAVYYCNKHWWTGDWWGQGTQVTVSS
B13: NRCoV2-18 VHH (VHH)
VHH: EVQLVESGGGLVQAGGSLRLSCVASGITISGYNMAWWRQTRGKQTERVAFINSGGSTTYSDSVKGRFTISRDNGKNTAYLQMNSLNAEDTADYFCSLHTSHDYWGQGTQVTVSS

Target: Human SARS-CoV-2_Wuhan S (SmT1) (SARS-CoV-2 (Wuhan), UniProt P0DTC2 14-1208)
Experiment: tandem SPR, immobilized S, orientation 1: VHH alone

| Binder | End 1st inj (RU) |
| --- | --- |
| B1 | 10.3 |
| B2 | 27.1 |
| B3 | 16.7 |
| B4 | 10.1 |
| B5 | 36.9 |
| B6 | 21.8 |
| B7 | 59 |
| B8 | 26.9 |
| B9 | 10.9 |
| B10 | 39.4 |
| B11 | 37.4 |
| B12 | 21.3 |
| B13 | 12.6 |
